Values belong to the molecule of their own block, whether it stands above or below them. No end group written: not given here. *: point of attachment. CH2Cl = ClC*
Legend:
[1] = biological target: T1, D-phenylalanyl-L-prolyl-L-arginine beta-napthylamide
T1 sequence (peptide, D-phenylalanine at position 1; C-terminal beta-naphthylamide): FPR

GPM-bNA = biological target: T2, GPM-bNA
T2 sequence (peptide, C-terminal beta-naphthylamide): GPM

[2] = biological target: T3, L-alanyl-L-prolyl-L-phenylalanine beta-naphthylamide
T3 sequence (peptide, C-terminal beta-naphthylamide): APF

[3] = biological target: tripeptidyl aminopeptidase-S (Tap) of Streptomyces lividans 66 (Streptomyces lividans 66)
[4] = biological target: T4, tripeptidyl aminopeptidase-S (Tap) of Streptomyces lividans 66 (Streptomyces lividans 66); assay: inactivation kinetics of purified Tap on ice, residual activity with APA-pNA (Example 8)
T4 chain: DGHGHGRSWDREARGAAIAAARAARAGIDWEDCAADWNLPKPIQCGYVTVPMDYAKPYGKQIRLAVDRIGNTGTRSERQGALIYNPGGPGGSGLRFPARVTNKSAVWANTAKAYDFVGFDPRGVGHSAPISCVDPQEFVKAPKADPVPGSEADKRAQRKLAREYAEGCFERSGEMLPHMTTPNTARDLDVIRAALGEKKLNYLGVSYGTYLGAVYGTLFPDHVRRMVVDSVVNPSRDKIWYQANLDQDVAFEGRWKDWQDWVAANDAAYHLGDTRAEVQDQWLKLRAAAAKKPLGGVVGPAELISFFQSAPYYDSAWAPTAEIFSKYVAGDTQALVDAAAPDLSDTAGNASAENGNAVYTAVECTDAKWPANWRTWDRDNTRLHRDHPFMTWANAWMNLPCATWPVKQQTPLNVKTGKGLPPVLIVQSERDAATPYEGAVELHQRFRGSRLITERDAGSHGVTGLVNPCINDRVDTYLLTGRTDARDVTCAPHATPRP
Description: A stock solution of 1.1 uM Tap in 50 mM Tris-HCl, pH 8.0 was prepared. APACMK stock solutions of 11 uM, 13.8 uM, 17.3 uM, 21.7 uM, 27.0 uM, 54.0 uM, 108 uM, and 1.08 mM were prepared. The Substrate Solution was 50 mM Tris-HCl, pH 8.0, 0.8 mM APA-pNA. The inactivation was performed by placing 90 ul of Tap […] in a 1.5 ml Eppendorf tube on ice and adding 10 ul of water (uninhibited control) or 10 ul of APACMK. A 10 ul aliquot was removed immediately and was assayed by adding it to a cuvette containing 390 ul Substrate Solution at 22° C. The initial velocity was obtained from the change in absorbance at 405 nm during the first 10 seconds of the assay. Additional aliquots were removed at time points and assayed by the same method. At APACMK concentrations greater than 5.0 uM in the incubation, it was not possible to remove an aliquot from the incubation before 90% inactivation occurred.

Molecule: soluble SlpD secreted from AP6.SlpD (enzyme)
A405, APA-bNA assay on 20 µl cell-free broth (APA-bNA): 1.15 A405 | A540, Boc-APARSPA-bNA assay on 20 µl cell-free broth (Boc-APARSPA-bNA): 0.278 A540

Molecule: Ala-Pro-Ala-CH2Cl (also: hydrochloride salt) [L-alanyl-L-prolyl-L-alanine chloromethylketone]
inactivation of Tap, residual activity assayed with APA-pNA [3]: > 99% | kinact [3]: 0.14 min⁻¹ | Ki [4]: 3.3 µM

Further lines, results first:

A540, Boc-APARSPA-bNA assay on 20 µl cell-free broth (Boc-APARSPA-bNA): 0.084 A540
Molecule: soluble SlpE secreted from AP6.SlpE (enzyme)

Tripeptidyl Aminopeptidase Activity (A540 above background) (A540 above background) [1]: 0.02 | Tripeptidyl Aminopeptidase Activity (A540 above background) (A540 above background) (GPM-bNA): > 3 | Tripeptidyl Aminopeptidase Activity (A540 above background) (A540 above background) [2]: > 3
B1: tripeptidyl aminopeptidase-S (Tap) of Streptomyces lividans 66 (enzyme)
chain: DGHGHGRSWDREARGAAIAAARAARAGIDWEDCAADWNLPKPIQCGYVTVPMDYAKPYGKQIRLAVDRIGNTGTRSERQGALIYNPGGPGGSGLRFPARVTNKSAVWANTAKAYDFVGFDPRGVGHSAPISCVDPQEFVKAPKADPVPGSEADKRAQRKLAREYAEGCFERSGEMLPHMTTPNTARDLDVIRAALGEKKLNYLGVSYGTYLGAVYGTLFPDHVRRMVVDSVVNPSRDKIWYQANLDQDVAFEGRWKDWQDWVAANDAAYHLGDTRAEVQDQWLKLRAAAAKKPLGGVVGPAELISFFQSAPYYDSAWAPTAEIFSKYVAGDTQALVDAAAPDLSDTAGNASAENGNAVYTAVECTDAKWPANWRTWDRDNTRLHRDHPFMTWANAWMNLPCATWPVKQQTPLNVKTGKGLPPVLIVQSERDAATPYEGAVELHQRFRGSRLITERDAGSHGVTGLVNPCINDRVDTYLLTGRTDARDVTCAPHATPRP

Source: patent US6127144, “Method for expression of proteins in bacterial host cells” (Cangene Corporation, dated 2000)
